Results published in US20220251194A1 (Merck Sharp & Dohme, published 2022).
Positions count from the first letter of the chain named. Numbers in names are those of the source. Blank lines part the entries; values can stand above or below the binder they belong to.

Key:
[1] = molecular target: T1, polyhistidine-tagged human PD-1 (hPD1-His, 98AFK) (human, UniProt Q15116 25-167, limits assumed); test: SPR (Biacore T200), mAb captured on anti-Fc chip; reference Mouse 08A
T1 construct: also called human PD1-His; Human PD-1-His
T1 sequence (Q15116 25-167 limits assumed): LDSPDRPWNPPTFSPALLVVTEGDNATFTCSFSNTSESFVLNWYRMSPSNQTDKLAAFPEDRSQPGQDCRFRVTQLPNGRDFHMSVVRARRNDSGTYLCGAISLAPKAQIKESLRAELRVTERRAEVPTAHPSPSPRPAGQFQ
Protocol: (§1) A surface plasmon resonance (SPR)-based assay utilizing capture mode was used to determine the binding kinetics and affinities of anti-PD-1 antibodies against polyhistidine-tagged human PD-1 (hPD1-His, 98AFK). Following manufacture instructions, a series S sensor chip CM5 (GE Healthcare, BR100530) was activated using an amine-coupling kit (GE Healthcare, BR100050). Either human capture kit (anti-human Fc, 25 μg/mL, GE Healthcare, BR100839) or mouse capture kit (anti-mouse Fc, 30 μg/mL, GE Healthcare, BR100838) antibody diluted in the supplied pH 5.0, 10 mM sodium acetate buffer was immobilized onto the activated surface for 7 minutes. After immobilization, surfaces were deactivated with 1M ethanolamine/HCl (pH 8.5) for 7 minutes.
(§2) Binding kinetics were measured on a biacore T200 in HBS-EP+ (0.01 M HEPES pH 7.4, 0.15 M NaCl, 3 mM EDTA, 0.05% v/v Surfactant P20) running buffer at 25° C. Antibodies were captured either on mouse or human Fc capture surfaces at 10 μL/min flow rate. Antibodies were captured on flow cells 2, 3 and 4. Flow cell 1 was used as a reference with no antibody captured. A 6-point, 2-fold serial dilutions of the analyte 98AFK (hPD1-His), starting at 20 nM, were prepared in the running buffer (HBS-EP+). Two buffer blanks were included for double referencing. Titration series were injected for 3 minutes at 50 μl/min followed by 600 seconds of dissociation. After each cycle, surfaces were regenerated with a 30 second injection of 3M MgCl₂ at […] on the anti-human Fc chip or 180 seconds of 10 mM Glycine pH 1.7 at 10 μl/min on the anti-mouse Fc chip.
(§3) Sensorgram processing and data analysis were performed with Biacore T200 Evaluation Software Version 2.0.4 (GE Healthcare). […] Processed curves were globally fitted to a 1:1 binding model to determine the association rate constant, kₒₙ (M⁻¹s⁻¹, where “M” equals molar and “s” equals seconds) and the dissociation rate constant, koff (s⁻¹). These rate constants were used to calculate the equilibrium dissociation constant, KD (M)=koff/kₒₙ.

[2] = molecular target: T1, polyhistidine-tagged human PD-1 …; test: SPR solution affinity; reference Humanized 08A IgG4 S61N (98AIO)
Protocol: (§4) The titration series were incubated for 16-24 hours to reach equilibrium at room temperature. The unbound sites were measured using a BIAcore chip immobilized with antigen in a competition mode where SPR signal detected corresponded to unbound antibody.
(§5) The titration series following >16 hr. incubation were injected over the sensor chip immobilized with hPD1-His (above). Free, unbound antibodies concentrations were measured as proportional to RU after 120 seconds (for 500 pM mAb series) or 400 seconds (for 100 pM mAb series) of injection at 10 μL/min. After each cycle, surfaces were regenerated with a 30 second injection of 1:1 mixture of 3M MgCl₂ and pH 2.0 10 mM glycine at 30 μL/min.

[3] = molecular target: T1, polyhistidine-tagged human PD-1 …; test: SPR (Biacore T200), mAb captured on anti-Fc chip, hPD1-His as analyte
Protocol: as §1, §2, §3

[4] = molecular target: T1, polyhistidine-tagged human PD-1 …; test: SPR solution affinity (Biacore T200, competition mode, equilibrium titration)
Protocol: as §4, §5

[5] = molecular target: T2, recombinant human or cyno PD-1 (immobilized onto CM5 chip, Example 1) (human or cyno ( which was …, UniProt Q15116 25-167, limits assumed)); test: SPR (Biacore T200), PD-1 immobilized on CM5 chip, Fab as analyte
T2 construct: also called antigen
T2 sequence (Q15116 25-167 limits assumed): as above
Protocol: Immobilization of recombinant human or cyno PD-1 onto CM5 chip: A CM5 sensor chip was activated in FC2 by 7-min. injection (10 μl/min.) of freshly prepared 1:1 50 mM NHS: 200 mM EDC. PD-1 at a concentration of 0.2 μg/ml in 10 mM sodium acetate buffer pH 5.0 was injected onto the activated chip at 5 μl/min. (HBS-EP running buffer: 10 mM HEPES, 150 mM NaCl, 3.4 mM EDTA, 0.005% surfactant P20, pH 7.4) for 120 seconds. The remaining active coupling sites were blocked with 7 min. injection of 1M ethanolamine at 10 μl/min.
Binding kinetics measurement: Various concentrations of the Fabs were injected with a flow rate of 30 μl/min for 180 seconds(s) during the association phase. The dissociation of bound antibody was monitored by flowing HBS-EP buffer over the chip surface for 600 seconds. At the end of each cycle, the sensor surfaces were regenerated by injecting regeneration buffer (10 mM glycine buffer with pH 1.7) for 180 seconds. After sensograms were corrected for signals from a reference flow, kinetics were calculated with BIACORE T 200 evaluation software ver.1.0 (Biacore, GE, USA).

B1: Humanized 08A IgG4 S61N (lot 98AIO) (antibody)
heavy: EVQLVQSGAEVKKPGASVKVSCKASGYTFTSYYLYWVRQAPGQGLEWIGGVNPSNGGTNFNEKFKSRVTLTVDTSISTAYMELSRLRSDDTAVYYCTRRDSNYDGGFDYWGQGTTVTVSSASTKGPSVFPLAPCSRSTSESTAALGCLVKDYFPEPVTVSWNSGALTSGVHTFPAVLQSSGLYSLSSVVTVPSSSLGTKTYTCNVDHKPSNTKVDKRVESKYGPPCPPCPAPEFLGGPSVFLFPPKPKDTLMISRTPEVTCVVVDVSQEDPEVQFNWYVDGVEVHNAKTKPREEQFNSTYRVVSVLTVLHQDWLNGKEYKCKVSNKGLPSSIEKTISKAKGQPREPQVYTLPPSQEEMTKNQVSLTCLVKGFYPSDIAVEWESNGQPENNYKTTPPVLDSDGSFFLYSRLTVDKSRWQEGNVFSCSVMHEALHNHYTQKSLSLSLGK
light: DIVMTQTPLSLSVTPGQPASISCRASKSVSTSGFSYLHWYLQKPGQPPQLLIFLASNLESGVPDRFSGSGSGTDFTLKISRVEAEDVGVYYCQHSWELPLTFGQGTKLEIKRTVAAPSVFIFPPSDEQLKSGTASVVCLLNNFYPREAKVQWKVDNALQSGNSQESVTEQDSKDSTYSLSSTLTLSKADYEKHKVYACEVTHQGLSSPVTKSFNRGEC
notes: IgG4 S228P / kappa; also called Humanized x [PD-1_H] mAb (08A/HuPD1A-11 S61N S228P corrected) IgG4 / Kappa
KD (REF)/KD [1]: 4.4 | KD (REF)/KD [2]: 1 | Kd [3]: 0.054 nM | Kd [4]: 0.033 nM

B5: Fab 128 (Fab, V domains shown)
VH: EVQLVQSGAEVKKPGASVKVSCKASGYTFTQYYYYWVRQAPGQGLEWIGGVNPSNGGTNFNEKFKSRVTLTVDTSISTAYMELSRLRSDDTSVYYCTRRDSNYDGGFDYWGQGTTVTVSS
VL: DIVMTQTPLSLSVTPGQPASISCRASKSVSTSGFSYLHWYLQKPGQPPQLLIFLGRHRASGVPDRFSGSGSGTDFTLKISRVEAEDVGVYYCQHSWELPLTFGQGTKLEIKR
Kd [5]: 0.015 nM

B7: Fab 133 (Fab, V domains shown)
VH: B5 VH
VL: B5 VL with R56F, H57Y, A59T, Q93S, H94Q, S95M, W96A, E97D
Kd [5]: 0.031 nM

B8: Fab 138 (Fab, V domains shown)
VH: B5 VH with Y34T, V51I, N52E, S54N, N55R, S92A
VL: B5 VL with G55A, R56S, H57N, R58L, A59E, Q93A, H94Q, S95T, W96F
Kd [5]: 0.066 nM

B9: Fab 139 (Fab, V domains shown)
VH: B5 VH
VL: B5 VL with G55S, R56K, H57F, A59R
Kd [5]: 0.014 nM

More lines, now with the values ahead:

KD (REF)/KD [1]: 4.2 | KD (REF)/KD [2]: 1 | Kd [3]: 0.057 nM | Kd [4]: 0.033 nM
B2: Humanized 08A IgG4 S61N G56A (antibody, V domains shown)
VH: B5 VH with Q31S, Y34L, G56A, S92A
VL: B5 VL with G55A, R56S, H57N, R58L, A59E
notes: IgG4 S228P / kappa; also called 51AQK; Humanized x [PD-1_H] mAb (08A/HuPD1A-11 S61N VH G56A / VL) IgG4 S228P / Kappa

KD (REF)/KD [1]: 2.4 | KD (REF)/KD [2]: 0.6 | Kd [3]: 0.1 nM | Kd [4]: 0.056 nM
B3: Humanized 08A IgG4 G56A (antibody, V domains shown)
VH: B5 VH with Q31S, Y34L, G56A, N61S, S92A
VL: B5 VL with G55A, R56S, H57N, R58L, A59E
notes: IgG4 S228P / kappa; also called 89AVZ; Humanized x [PD-1_H] mAb (08A/HuPD1A-11 G56A) IgG4 S228P / Kappa

KD (REF)/KD [1]: 3 | KD (REF)/KD [2]: 1.7 | Kd [3]: 0.079 nM | Kd [4]: 0.019 nM
B4: Humanized 08A IgG4 Fab 098 G56A (antibody, V domains shown)
VH: B5 VH with Q31S, Y34L, G56A, N61S, S92A, D100L, N102H
VL: B5 VL with G55A, R56S, H57N, R58L, A59E
notes: IgG4 S228P / kappa; also called 90AVZ

KD (REF)/KD [1]: 5.7 | KD (REF)/KD [2]: > 13 | Kd [3]: 0.042 nM | Kd [4]: < 0.0025 nM
B6: Humanized 08A IgG4 Fab 100 S61N G56A (antibody, V domains shown)
VH: B5 VH with Q31S, Y34L, G56A, S92A, D100L, N102H
VL: B5 VL with G55S, R56K, H57Y, A59S, Q93S, H94Q, S95A, W96Y, E97H
notes: also called 25AVE
